Tested on: HTT-ΔN17-46Q-GFP
Test: cell-based HTT seeding assay (ΔN17-1E cells)
Set-up: species or system human
Conditions: ΔN17-1E (HEK293) cells; substance applied as seed; FIG. 4
Excerpt: Described herein is the development of a cell-based HTT seeding assay. A DNA construct encoding Exon1 of mutant human HTT with a 46 polyQ repeat was designed (FIG. 1C). This mutant HTT was engineered to delete amino acid residues 2-16 and was fused with a green fluorescent protein (GFP) at its C-terminus, named HTT-ΔN17-46Q-GFP hereafter. The HTT-ΔN17-46Q-GFP was then cloned into a pcDNA3 vector and transfected into HEK293 cells. Clones of stably transfected cells expressing HTT-ΔN17-46Q-GFP were selected to generate individual cell lines. Expression of the transgene in the cell lines was characterized to confirm its morphology, expression level and subcellular localization. Line 1E, named ΔN17-1E cells, was selected based on it moderate transgene expression with minimal protein aggregates at the baseline. Based on this cell line, a cell-based HTT seeding assay was developed. Extracellular application of preformed HTT aggregates or biosamples from HD patients as “seeds”, to ΔN17-1E cells could induce intracellular aggregation of HTT-ΔN17-46Q-GFP proteins (FIG. 1 through FIG. 3). […] Currently, the assay has been optimized to be performed in a high-throughput format, making it more capable with large quantity of samples. […]

B1: preformed mHTT-exon1 seeds: preformed mHTT-exon1 seeds derived from in vitro formed mHTT fibrils by sonication (protein)
chain: MATLEKLMKAFESLKSFQQQQQQQQQQQQQQQQQQQQQPPPPPPPPPPPQLPQPPPQAQPLLPQPQPPPPPPPPPPGPAVAEEPLHRP
- induction of intracellular HTT-ΔN17-46Q-GFP aggregation by extracellularly applied seeds: forms HTT-ΔN17-46Q-GFP aggregates
